Data: publication PMC3637229, “Differential Translation of Dazap1 Transcripts during Spermatogenesis”

T1: His-DAZL (Mus musculus, UniProt Q64368 1-298)
T1 sequence: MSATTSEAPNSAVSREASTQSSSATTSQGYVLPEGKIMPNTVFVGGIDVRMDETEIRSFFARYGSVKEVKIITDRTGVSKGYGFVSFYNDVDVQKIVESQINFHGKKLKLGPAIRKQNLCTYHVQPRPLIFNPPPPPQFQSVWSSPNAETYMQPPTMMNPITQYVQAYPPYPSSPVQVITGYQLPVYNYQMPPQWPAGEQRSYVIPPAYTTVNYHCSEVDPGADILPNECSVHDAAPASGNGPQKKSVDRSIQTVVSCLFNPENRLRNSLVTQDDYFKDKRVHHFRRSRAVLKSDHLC

B1: Dazap1 3'UTR C region (ssRNA)
RNA: AGGGUUUAAAAAACGCCUUCAGCUUUAAUUCAGAAUUUCAGGUUUCUUUUUCUUCUUCCUUUUUUUUCCUUUUUUUGAGAUUAUUUUCUUGAGCCUUUUGUUUUAUGGUAUAUUGUAAACUUUUAUGUUAAAGAAAAAAUAUACAUUUACAAAUUGUGAGAUUUUUAAGAGAAAUUUUCUACAAUGUAUACUGGCUUAUUUUUUAAUUUAAAGCAGGGUUCGGGUG

Tests used:
[1] = target: T1, His-DAZL; experiment: EMSA; heparin, yeast tRNA; EMSA: 1 ug DAZL in 10 ul, 20 mM Tris pH 7.4, 2.5 mM MgCl2, 60 mM KCl, 1 mM DTT, 5% glycerol, RT, then 5 mg/ml heparin + 0.5 mg/ml yeast tRNA; pull-down: 20 mM Tris-HCl pH 7.4, 2.5 mM MgCl2, 120 mM KCl, 1 mM DTT, 5% glycerol, RT, 5 mg/ml heparin; conditions: protein: recombinant; tags: His (pET-28a); label: 32P (gel shift)
[2] = target: T1, His-DAZL; experiment: competition; cold C_40 1, 5, 10 ng vs labeled CU_40; EMSA: 1 ug DAZL in 10 ul, 20 mM Tris pH 7.4, 2.5 mM MgCl2, 60 mM KCl, 1 mM DTT, 5% glycerol, RT, then 5 mg/ml heparin + 0.5 mg/ml yeast tRNA; pull-down: 20 mM Tris-HCl pH 7.4, 2.5 mM MgCl2, 120 mM KCl, 1 mM DTT, 5% glycerol, RT, 5 mg/ml heparin; conditions: protein: recombinant; tags: His (pET-28a)

Binder | binding result [1] | binding result [2]
B1 | binds | 
AGGGUUUAAAAAACGCCUUCAGCUUUAAUUCAGAAUUUCAGGU (ssRNA) [C_40] |  | no binding
AGGUUUCUUUUUCUUCUUCCUUUUUUUUCCUUUUUUUGAG (ssRNA) [CU_40] | binds | 
